# Source: the DeepSol protein solubility set
# Assay: soluble on expression in E. coli; label from the status in PepcDB or PDB records
row,Sequence,soluble on expression in E. coli
1,MNPLKAGDIAPKFSLPDQDGEQVNLTDFQGQRVLVYFYPKAMTPGCTVQACGLRDNMDELKKAGVDVLGISTDKPEKLSRFAEKELLNFTLLSDEDHQVCEQFGVWGEKSFMGKTYDGIHRISFLIDADGKIEHVFDDFKTSNHHDVVLNWLKEHA,soluble
2,MNQKPTPLMSPPPPAQQNGKDHKEKLHRIEDIMYSDADTFPEFSNRDGSRETVDTCWQLVLIRVPEHPNETHIKTINDAITSEMKATWKIPATSFAYVSAPHIPILQLAYGVAKKHFGEKTAIRSSFMFAEPKNDKFLIAKDSDLKHLKYEVILGASRFCWTKVETHAEMSKRIESTLFELMRVLPNLVLFLGPLAFDVLYETLEMQKRKTIAKPGVVIENFKRENNKWKRVQKHGATSISVPLC,not soluble
3,MNQLLINKHEKFFNRCLIGLPSTAQSEDSNKLAIIYFCLHGLQLIQKFQFTNQELIYYRNFIINQFMIENNQIISFRSTHYFQKTNQKYDCPNLSSTLFALYNLLILKSPYHTIINRKKIMNFLCKCQVKDGINKGGFVPTLYYNEENGDYKQYGEPDLRVCYMALLIRHLMKYDDNNNNNNREDSNETDIDLISLQQFILDRININGGFSSTIMDESHLGFTFCAIASLKLLNYPLEKLKSTKEWLIHRQVDYPENLYPKDGNGDGNGNGDNYEYYRNIDIGGFNGRENKLSDTCYSWWCTGSLYNIDVNFIKLVDLNKAEDYLLNKTQNQLFGGFGRDPDSTPDPMHSYLALASLSLWNHEKFALQEINPILTITKESYQFFKEEIKY,soluble
4,MNRDDAPPIPDALSHRQLNRWLETAMQESSTPAKESNDILSAELERWANHTRFLLQRMAHKGDAIGSDRSPQQVMALGSFRTHLMLGLQALKASQPGR,not soluble
5,MNRGVITISESGTVSMPTYTVWMTLQEIADMYNVFGCYVRKAVKAIFKDGILKEQGVRRHVRKNDRISYDVYSLELVIAVAFRIDSIESRAFREFIMQSVIGRQTSRTKLVCIFTENAMA,not soluble
6,MNRICELLGIEHPIISGGMVWCSGWKLASAVSNCGGLGLIGAGSMHPDNLEHHIRSCKAATDKPFGVNVPLLYPEMDKIMEIIMREHVPVVVTSAGSPKVWTAKLKAAGSKVIHV,not soluble
7,MNRKRKWQIPPPSEPVTDEYLTSVTIGERKPLNDRIQLAEYDLRWPSMFSVAADKIRSALSEKALLVEHVGSTSVPGLAAKLIIDMLLGVTDSADEKSYVLPLEQQGFVLQAREPGWYEHRFFRLKSGDMEWHLHVFSAECEEIDRMLAFRNWLRVHDDDRQRYENVKRTLAARTWKHMQNYADAKSDIVREILGRAQDDHVVGITSEAVSAAFRFR,not soluble
8,MNRLMTLTGAGLALAFSVSIAQAQVVVSSKIDTEGGVLGNIILAVLNQNKIETTDRIQLGATPVVRKAITAGEIDIYPEYTGNAAFFFSKADDPLWKDAAKGYEEAKTLDYDANKIVWLAPSPANNTWAIALRKDVADKNNLKTLSDFGKYVAGGGTVVLAASSEFVNSAAALPAFQTTYGFTMKPDQLITLSGGDTAATIAAAANQTNNANAAMVYGTDGGIAPSGLVVLEDDKHVQPVYQPAPIIREEVLKKHPNIEELLKPVFEKLDLATLQDLNARVQVGGEQAKTVAMDFLTKNGFAK,not soluble
9,MNSAVGAELFMGDDGVSLRPGLGGTESVLESWRYIMGKLRVGRFLISSRVNGPGRRFVIWFQGCPIRCRGCLNPEFHDEDGGHLIETARLVDMIRDLRDEIEGVTFTGGEPLAQAMELVKLAGAVKSMGLTVVCFTGYEMDEILKGNIEGGLELLEFVDVLIDGPYIEEKSAPLLWRGSTNQDVYFLTERYAEFRDRVMACSEMEAELKVGADGVYMTGIFDVEFWEELRRRLGDGSLEHHHHHH,not soluble
10,MNSEALDNFEAPRFRPPDEPRMMKNYTTQFSPLDTPPPMNGTPPIAGMHHYLTDPDPSREMMDLPANISNFGRDDASLVLPANLMGGADTSLPNIDRYKMDLPSEIYPNDPMPRGISTPPMNMKFNLGENIGRDVDRGVMNGFGAERQYQDPMIEIEQNLGNIRFESGNEKIKATITKFDEDYYGNEICAQCQAEDAYMDRMRRQAEEERRKYEETMKRAKMYEDLTREKEETFKREEAERNKALRDHVDRVNAEMIEMKKRRPKSPVLENYIFRHESPRSRDVEVRTRKDAYRAELDRQVEEKRLRRIAEFEKNEAIDATSNARAALEFANAREAERKSIEHAKEMARKQLEFQMEMSRVGAPSDKNWLWWAERPDEHGWRDARLKGLKHTNQVERNQTFKQSIGMLEEFKARQAHDDMVMRDNRRAKYDKLRDQLHENSKMLYPLTKTESRPIIVQPDPRVEAAWREAHEKYDRKFAVLQDNAMKSISGAALDGVAHATTSCRRCARCARPMERKTTLFVNRGETILPHQANWHS,not soluble
11,MNSGPKVSVIMGIYNCERTLAESIESILSQSYKNWELILCDDASTDGTLRIAKQYAAHYSDRIKLIQNKTNKRLAASLNHCLSHATGDYIERQDGDDLSFPRRLEKQVAFLEKHRHYQVVGTGMLVFDEFGVRGARILPSVPEPGIMAKGTPFCHGTIMMRASAYRTLKGYRSVRRTRRMEDIDLWLRFFEEGFRGYNLQEALYKVREDSDAFKRRSFTYSIDNAILVYQACRRLKLPLSDYIYIAKPLIRAFMPAAVMNRYHKKRVMNQKEGLVKHELEHHHHHH,not soluble
12,MNSKVGCLMAILLLAGCAKQTPPPQANNGWLKKTPQGNSLNVAKSSAGSTTVAYSDVIKQAASHYGVDETLIKAIIQVESGYNPDVVSRSNAVGLMQIKASTAGRDAYRMKGRNGQPSSRELKDPVKNIDIGAAYINILQNQQLAGINDPQTLRYATIVSYANGAGAMLRTFSSDKRLAVNKINSLSPNEFYQHIQKKHPAAQAPRYLWKVDTAYRAMSE,not soluble
13,MNSLIPPPTSEQQMNMFRLRDKMSLLNAEFLKVINGYFTEKNHYDFSGTMKSYMDHVAQLKQIYKVDDDVAADMTVPRRTENSSESSGETVAPRKIAKAVRKNGTPKNPLNSTVFAASSPAATVASVPKFGDISVITKETPAPLAKTAEPLVAPAAPATARKRAIRGGGPLGGAESVVFKSGEDGQAATSSVKIPATTIKFPEPTKDFWTKKSDAPAAPSNSGSLFAFLGKELFSIKKNPPIYQNFSGDKPKETPKFSGFSFGKKPAEPSEEPKAADSTPKLTFGSPKEADLPKPASSLFGASPSKPLVFGGSSADSTTSAPKPFSALSTAASLFGSSSASTTTTATQPLSFGSSSTGGSSLFSGFAGLAQKAMENQNQAKPEGSGEDDEGEYVPPKVETVENQEPDAVLSSKVSVFKFTGKEYTKLGVGMLHIKDNDGKFSVLIRAATATGTVWLNSLCNKAMKATVVDAKGDRIRLTCPSSSTEMATMMIRFGTADGAKKFTDKILEVAV,not soluble
14,MNSNGPLMEHGKRRVAYYYDSNIGNYYYGQGHVMKPHRIRMTHHLVLNYGLYRNLEIFRPFPASFEDMTRFHSDEYMTFLKSANPDNLKSFNKQMLKFNVGEDCPLFDGLYEFCQLSSGGSLAAATKLNKQKVDIAINWMGGLHHAKKSEASGFCYTNDIVLGILELLKYHKRVLYVDIDVHHGDGVEEAFYTTDRVMTVSFHKYGDFFPGTGDLKDIGAGKGKLYSVNVPLRDGITDVSYQSIFKPIMTKVMERFDPCAVVLQCGADSLNGDRLGPFNLTLKGHGECARFFRSYNVPLMMVGGGGYTPRNVARCWTYETSIAVDKEVPNELPYNDYFEYFGPNYRLHIESSNAANENSSDMLAKLQTDVIANLEQLTFVPSVQMRPIPEDALSALNDDSLIADQANPDKRLPPQITDGMIQDDGDFYDGEREGDDRRNESDAKRAAQFESEGGEKRQKTE,not soluble
15,MNSQNSQKSSSFDDFAGQVVIYTEIGNSKCAKGRDLLHREGIPYTDVSLDSFPQHSQEIFDRTGTDVLPQIFFNNIYIGHETDLERVIGETNKWESLVEHVRREKCTNGGPIVPHPMNAIGFEEYETENNNKCCDEVLWVPDEYSKLVRDMKNAQLIKNNRVKLKVYRNSFKGEELVEWLMRQKGIKRSEALEIGQELIDRHVGQQTSKESGMTFSPDRYYQLVEDDENKPLNAGEDDGDKKQSFPVAECNEKFSKLLKPIFNDILTDDNQSIIYGGLSTNDNFTRYLQFSRELNHVTFEGSTSDDRLTFFINVYNMMLIHITLKHGPPIGIWQRRKLVNGTYYLIGGHRYALHSIINGILRGNKKGPGMLWKAFGKQDARLPISLAVCDPLIYFSLCSGSKTTPPLRVYHSKSIHQEMRENARQTLLRGDKFLRVDMKKNVIHLGKTFKWFSDDFGGSTEKILQWILDVLDTNESDKKHNLQKLFFTGEYSIEYIPYDWSTNGRMDEKEREDIDGGGGGGGDVRRTKTIE,not soluble
16,MNSSRPYLVRALYEWIVDNDCTPHILVNAEFAGVKVPPGYASDGQIVLNVSPSAVRHLHMDNEAVSFEGRFGGVAQSLYIPALAVMAIYARENGQGMVFDLEQPGPVDDEPGDDDGGPSDEPPRPSGRPSLKVVK,not soluble
17,MNSTYQLFIDVTSRKCILAIYKNFKIHTSIIVDTNNNLTDIIVEHLNNLLKITNLQYQDLEAIYLNTGPGSFTGIRVGAIVAKTICTIFNKIKLFINDSLNIIANGKNDVFVYLDAKGNKSYVITITNNIQNEYKIITNKELQNELKNTSLTIIDANQIDYHDLIYNLKFDNFKLTNILDFRLNYVKKPLNLEHHHHHH,not soluble
18,MNTETSTQSAPSDTYDTSIYYNSSPRVTANDITTLTSFAAPAPQVLDYANTQYDIYRNQPAYYLPSYAPTAPTTFYSDFANFNVTRSQDFASVPAVANSSDVKPIIIKQEKSTPNATELIIQSRVDSQHEDTTTSTAGGAGVGGPRRTKFVLSVDRRKAATMRERRRLRKVNEAFEVVKQRTCPNPNQRLPKVEILRSAIDYINNLERMLQQAGKMTKIMEQNQHLQMTQQINGAPPHDYVTSSHFASSSYNPENMFDDDDLTDSDDDRDHHKLGNAVDLRRRNSLDRLSRIVASIPNEEAMTDEQLLQPANDVIDGEKKLEML,not soluble
19,MNTLEKIQKNLENFSKSERKVAEVIMASPQTAIHSSIATLAKMADVSEPTVNRFCRRLDTKGFPDFKLHLAQSLANGTPYVNRNVEEDDGPDAYTHKIFESTMACLDVAKNSLDPMQVNRAVDLLTQAKRISFFGLGASSSVARDAQNKFIRFNIPITCFEDIVMQRMSCINCSDNDVIVLISHTGRTKSQVEIANLARENGATVIAITAKDSPLEKASSLAITLDIPEDTDVYMPMASRVVQMTVIDVLATGFTLRRGTGFRENLKRVKDALKDSRYDKLSQY,not soluble
20,MNTLSDSASPLYEKVKDFVLGNIGSGKWARNSRLPSENELVSALGVSRMTVHRALRELTSEGHLRRIQGVGTFVAPPRPRSTLIEISNIITEIKTRGSRHRAEVVVLERIARPEPELLLAFEFETVKPVDHSVVIHFENDLPVQLEERYVNPNLVSGYIDQDFAAVATYDYLQNATPLTEVEHLISALPANAEQARLLNVRPGDCCLILHRKTWTGPVVATVNTFTYVGSRYSLGSRYLHGGK,not soluble
21,MNVACPALLIAGPASGQGKTTLTAALARHHVRQGRRVRVFKVGPDFLDPMLLQAASGQPVYQLDLWLVGEDQCRSLLFEAARSADLILIEGVMGLFDGTPSAADLAQTFGVPVLAVIDASGMAETFGAVAHGLATHRPGLPFAGVVANRVASPGHADRLRASLPGAIPFRGAFFRQPDAGFPDRHLGLVQAPELGDLDRRLDTLADAVAGTGLADLPDSVPFAPESAAVPPRLLEGVRIGIARDAAFSFLYPANLDLLRAMGATPVFFSPLGDRSLPEVDSVYLPGGYPELHLDTLAGNGGMKESLREHVAAGKPLLAECGGLLYLLEELADQNGRTSAMCGILPGRAKMQTRLAGLGLQSAAFRSGTLRAHTFHYSRLETPLSPLLMAERRRGGSAGEAVYRQGRLTASYLHWYLPSCPEAAAELLRPLEHHHHHH,soluble
